{
  "source": "patent US20030166872A1",
  "about": "(APPLIED MOLECULAR EVOLUTION, published 2003)",
  "data": [
    {"molecular_target": "T1, integrin αVβ3 (human, UniProt P06756 31-1048; P05106 27-788)", "T1 construct": "mature; biotinylated in capture lift and capture ELISA; also on M21 melanoma cells in some assays; also called vitronectin receptor; αVβ3 receptor", "test": "SPR (BIAcore)", "units": {"fold slower dissociation rate": "fold", "fold greater association rate": "fold"}, "values": [
      {"binder": "LM609 grafted antibody combinatorial clone 2G4 (Fab, V domains shown, Fab) VH: QVQLVESGGGVVQPGRSLRLSCAASGFTFSSYDMSWVRQAPGKGLEWVAKVSSGGGSTYYLDTVQGRFTISRDNSKNTLYLQMNSLRAEDTAVYYCARHNYGSFASWGQGTTVTVSS VL: EIVLTQSPATLSLSPGERATLSCQASQSISNHLHWYQQRPGQAPRLLIRYRSQSISGIPARFSGSGSGTDFTLTISSLEPEDFAVYYCQQSGSWPLTFGGGTKVEIK", "fold slower dissociation rate": "> 10"},
      {"binder": "LM609 grafted antibody combinatorial clone 6G1 (Fab, V domains shown, Fab) VH: QVQLVESGGGVVQPGRSLRLSCAASGFTFSSYDMSWVRQAPGKGLEWVAKVSSGGGSTYYPDTVQGRFTISRDNSKNTLYLQMNSLRAEDTAVYYCARHNYGSFASWGQGTTVTVSS VL: EIVLTQSPATLSLSPGERATLSCQASQSISNHLHWYQQRPGQAPRLLIRYRSQSISGIPARFSGSGSGTDFTLTISSLEPEDFAVYYCQQSGSWPLTFGGGTKVEIK", "fold greater association rate": "2 to 4", "fold slower dissociation rate": "> 10"},
      {"binder": "LM609 grafted antibody combinatorial clone 6D1 (Fab, V domains shown, Fab) VH: QVQLVESGGGVVQPGRSLRLSCAASGFTFSSYDMSWVRQAPGKGLEWVAKVSSGGGSTYYPDTVQGRFTISRDNSKNTLYLQMNSLRAEDTAVYYCARHNYGSFYSWGQGTTVTVSS VL: EIVLTQSPATLSLSPGERATLSCQASQSISNHLHWYQQRPGQAPRLLIRYRSQSISGIPARFSGSGSGTDFTLTISSLEPEDFAVYYCQQSGSWPLTFGGGTKVEIK", "fold slower dissociation rate": "> 10"},
      {"binder": "LM609 grafted antibody combinatorial clone 17 (Fab, V domains shown, Fab) VH: QVQLVESGGGVVQPGRSLRLSCAASGFTFSSYDMSWVRQAPGKGLEWVAKVSSGGGSTYYLDTVQGRFTISRDNSKNTLYLQMNSLRAEDTAVYYCARHNYGSFASWGQGTTVTVSS VL: EIVLTQSPATLSLSPGERATLSCQASQSISNFLHWYQQRPGQAPRLLIRYRSQSISGIPARFSGSGSGTDFTLTISSLEPEDFAVYYCQQSGSWPHTFGGGTKVEIK", "fold slower dissociation rate": "> 10"},
      {"binder": "LM609 grafted antibody combinatorial clone 8F9 (Fab, V domains shown, Fab) VH: QVQLVESGGGVVQPGRSLRLSCAASGFTFSSYDMSWVRQAPGKGLEWVAKVSSGGGSTYYPDTVQGRFTISRDNSKNTLYLQMNSLRAEDTAVYYCARHNHGSFASWGQGTTVTVSS VL: EIVLTQSPATLSLSPGERATLSCQASQSISNHLHWYQQRPGQAPRLLIRYRSQSISGIPARFSGSGSGTDFTLTISSLEPEDFAVYYCQQSGSWPLTFGGGTKVEIK", "fold slower dissociation rate": "> 10"},
      {"binder": "LM609 grafted antibody combinatorial clone C29 (Fab, V domains shown, Fab) VH: QVQLVESGGGVVQPGRSLRLSCAASGFTFSSYDMSWVRQAPGKGLEWVAKVSSGGGSTYYPDTVQGRFTISRDNSKNTLYLQMNSLRAEDTAVYYCARHNHGSFYSWGQGTTVTVSS VL: EIVLTQSPATLSLSPGERATLSCQASQSISNHLHWYQQRPGQAPRLLIRYRSQSISGIPARFSGSGSGTDFTLTISSLEPEDFAVYYCQQSGSWPLTFGGGTKVEIK", "fold greater association rate": "2 to 4", "fold slower dissociation rate": "> 10"},
      {"binder": "LM609 grafted antibody combinatorial clone C119 (Fab, V domains shown, Fab) VH: QVQLVESGGGVVQPGRSLRLSCAASGFTFSSYDMSWVRQAPGKGLEWVAKVSSGGGSTYYPDTVQGRFTISRDNSKNTLYLQMNSLRAEDTAVYYCARHNYGSFASWGQGTTVTVSS VL: EIVLTQSPATLSLSPGERATLSCQASQSISNHLHWYQQRPGQAPRLLIRYRSQSISGIPARFSGSGSGTDFTLTISSLEPEDFAVYYCQQSNSWPHTFGGGTKVEIK", "fold slower dissociation rate": "> 10"},
      {"binder": "LM609 grafted antibody combinatorial clone 56 (Fab, V domains shown, Fab) VH: QVQLVESGGGVVQPGRSLRLSCAASGFTFSSYDMSWVRQAPGKGLEWVAKVSSGGGSTYYPDTVQGRFTISRDNSKNTLYLQMNSLRAEDTAVYYCARHNYGSFASWGQGTTVTVSS VL: EIVLTQSPATLSLSPGERATLSCQASQSISNFLHWYQQRPGQAPRLLIRYRSQSISGIPARFSGSGSGTDFTLTISSLEPEDFAVYYCQQSGSWPHTFGGGTKVEIK", "fold slower dissociation rate": "> 10"},
      {"binder": "LM609 grafted antibody combinatorial clone 7 (Fab, V domains shown, Fab) VH: QVQLVESGGGVVQPGRSLRLSCAASGFTFSSYDMSWVRQAPGKGLEWVAKVSSGGGSTYYPDTVQGRFTISRDNSKNTLYLQMNSLRAEDTAVYYCARHNHGSFASWGQGTTVTVSS VL: EIVLTQSPATLSLSPGERATLSCQASQSISNFLHWYQQRPGQAPRLLIRYRSQSISGIPARFSGSGSGTDFTLTISSLEPEDFAVYYCQQSGSWPHTFGGGTKVEIK", "fold slower dissociation rate": "> 10"},
      {"binder": "LM609 grafted antibody combinatorial clone C37 (Fab, V domains shown, Fab) VH: QVQLVESGGGVVQPGRSLRLSCAASGFTFSSYDMSWVRQAPGKGLEWVAKVSSGGGSTYYLDTVQGRFTISRDNSKNTLYLQMNSLRAEDTAVYYCARHNYGSFYEWGQGTTVTVSS VL: EIVLTQSPATLSLSPGERATLSCQASQSISNHLHWYQQRPGQAPRLLIRYRSQSISGIPARFSGSGSGTDFTLTISSLEPEDFAVYYCQQSGSWPLTFGGGTKVEIK", "fold slower dissociation rate": "> 10"},
      {"binder": "LM609 grafted antibody combinatorial clone C176 (Fab, V domains shown, Fab) VH: QVQLVESGGGVVQPGRSLRLSCAASGFTFSSYDMSWVRQAPGKGLEWVAKVSSGGGSTYYPDTVQGRFTISRDNSKNTLYLQMNSLRAEDTAVYYCARHNYGSFATWGQGTTVTVSS VL: EIVLTQSPATLSLSPGERATLSCQASQSISNFLHWYQQRPGQAPRLLIRYRSQSISGIPARFSGSGSGTDFTLTISSLEPEDFAVYYCQQSGSWPHTFGGGTKVEIK", "fold slower dissociation rate": "> 10"}
    ]},
    {"molecular_target": "T1, integrin αVβ3", "test": "ELISA titration of Fab on immobilized αVβ3", "units": {"fold enhanced binding over LM609 grafted antibody": "fold"}, "method": "For ELISA titration of Fab on immobilized αVβ₃ and the related integrins αVβ₅ and αIIbβ₃, Immulon II microtiter plates were coated with 1 μg/ml purified receptor in 20 mM Tris, pH 7.4, 150 mM NaCl, 2 mM CaCl, 1 mM MgCl₂, 1 mM MnCl₂, washed once, and blocked in 3% BSA in 50 mM Tris, pH 7.4, 100 mM NaCl, 2 mM CaCl₂, 1 mM MgCl₂ for 1 h at 25° C. […] Just prior to use, the plates were washed two times and were then incubated 1 h at 25° C. with various dilutions of Fab. […] All dilutions and washes were in 50 mM Tris-HCl, pH 7.4, 100 mM NaCl, 2 mM CaCl₂, and 1 mM MgCl₂.", "values": [
      {"binder": "LM609 grafted antibody variant L96 (Fab, V domains shown, Fab) VH: QVQLVESGGGVVQPGRSLRLSCAASGFTFSSYDMSWVRQAPGKGLEWVAKVSSGGGSTYYLDTVQGRFTISRDNSKNTLYLQMNSLRAEDTAVYYCARHNYGSFAYWGQGTTVTVSS VL: EIVLTQSPATLSLSPGERATLSCQASQSISNHLHWYQQRPGQAPRLLIRYRSQSISGIPARFSGSGSGTDFTLTISSLEPEDFAVYYCQQSGSWPLTFGGGTKVEIK", "fold enhanced binding over LM609 grafted antibody": "> 3"},
      {"binder": "LM609 grafted antibody variant P60 (Fab, V domains shown, Fab) VH: QVQLVESGGGVVQPGRSLRLSCAASGFTFSSYDMSWVRQAPGKGLEWVAKVSSGGGSTYYPDTVQGRFTISRDNSKNTLYLQMNSLRAEDTAVYYCARHNYGSFAYWGQGTTVTVSS VL: EIVLTQSPATLSLSPGERATLSCQASQSISNHLHWYQQRPGQAPRLLIRYRSQSISGIPARFSGSGSGTDFTLTISSLEPEDFAVYYCQQSGSWPHTFGGGTKVEIK", "fold enhanced binding over LM609 grafted antibody": "> 3"},
      {"binder": "LM609 grafted antibody variant K52 (Fab, V domains shown, Fab) VH: QVQLVESGGGVVQPGRSLRLSCAASGFTFSSYDMSWVRQAPGKGLEWVAKVKSGGGSTYYLDTVQGRFTISRDNSKNTLYLQMNSLRAEDTAVYYCARHNYGSFAYWGQGTTVTVSS VL: EIVLTQSPATLSLSPGERATLSCQASQSISNHLHWYQQRPGQAPRLLIRYRSQSISGIPARFSGSGSGTDFTLTISSLEPEDFAVYYCQQSGSWPHTFGGGTKVEIK", "fold enhanced binding over LM609 grafted antibody": "> 3"},
      {"binder": "LM609 grafted antibody variant F32 (Fab, V domains shown, Fab) VH: QVQLVESGGGVVQPGRSLRLSCAASGFTFSSYDMSWVRQAPGKGLEWVAKVSSGGGSTYYLDTVQGRFTISRDNSKNTLYLQMNSLRAEDTAVYYCARHNYGSFAYWGQGTTVTVSS VL: EIVLTQSPATLSLSPGERATLSCQASQSISNFLHWYQQRPGQAPRLLIRYRSQSISGIPARFSGSGSGTDFTLTISSLEPEDFAVYYCQQSGSWPHTFGGGTKVEIK", "fold enhanced binding over LM609 grafted antibody": "> 3"},
      {"binder": "LM609 grafted antibody variant G102 (Fab, V domains shown, Fab) VH: QVQLVESGGGVVQPGRSLRLSCAASGFTFSSYDMSWVRQAPGKGLEWVAKVSSGGGSTYYLDTVQGRFTISRDNSKNTLYLQMNSLRAEDTAVYYCARHNYGSFAGWGQGTTVTVSS VL: EIVLTQSPATLSLSPGERATLSCQASQSISNHLHWYQQRPGQAPRLLIRYRSQSISGIPARFSGSGSGTDFTLTISSLEPEDFAVYYCQQSGSWPHTFGGGTKVEIK", "fold enhanced binding over LM609 grafted antibody": "> 3"},
      {"binder": "LM609 grafted antibody variant M102 (Fab, V domains shown, Fab) VH: QVQLVESGGGVVQPGRSLRLSCAASGFTFSSYDMSWVRQAPGKGLEWVAKVSSGGGSTYYLDTVQGRFTISRDNSKNTLYLQMNSLRAEDTAVYYCARHNYGSFAMWGQGTTVTVSS VL: EIVLTQSPATLSLSPGERATLSCQASQSISNHLHWYQQRPGQAPRLLIRYRSQSISGIPARFSGSGSGTDFTLTISSLEPEDFAVYYCQQSGSWPHTFGGGTKVEIK", "fold enhanced binding over LM609 grafted antibody": "> 3"},
      {"binder": "LM609 grafted antibody variant E102 (Fab, V domains shown, Fab) VH: QVQLVESGGGVVQPGRSLRLSCAASGFTFSSYDMSWVRQAPGKGLEWVAKVSSGGGSTYYLDTVQGRFTISRDNSKNTLYLQMNSLRAEDTAVYYCARHNYGSFAEWGQGTTVTVSS VL: EIVLTQSPATLSLSPGERATLSCQASQSISNHLHWYQQRPGQAPRLLIRYRSQSISGIPARFSGSGSGTDFTLTISSLEPEDFAVYYCQQSGSWPHTFGGGTKVEIK", "fold enhanced binding over LM609 grafted antibody": "> 3"},
      {"binder": "LM609 grafted antibody variant A102 (Fab, V domains shown, Fab) VH: QVQLVESGGGVVQPGRSLRLSCAASGFTFSSYDMSWVRQAPGKGLEWVAKVSSGGGSTYYLDTVQGRFTISRDNSKNTLYLQMNSLRAEDTAVYYCARHNYGSFAAWGQGTTVTVSS VL: EIVLTQSPATLSLSPGERATLSCQASQSISNHLHWYQQRPGQAPRLLIRYRSQSISGIPARFSGSGSGTDFTLTISSLEPEDFAVYYCQQSGSWPHTFGGGTKVEIK", "fold enhanced binding over LM609 grafted antibody": "> 3"},
      {"binder": "LM609 grafted antibody variant N92 (Fab, V domains shown, Fab) VH: QVQLVESGGGVVQPGRSLRLSCAASGFTFSSYDMSWVRQAPGKGLEWVAKVSSGGGSTYYLDTVQGRFTISRDNSKNTLYLQMNSLRAEDTAVYYCARHNYGSFAYWGQGTTVTVSS VL: EIVLTQSPATLSLSPGERATLSCQASQSISNHLHWYQQRPGQAPRLLIRYRSQSISGIPARFSGSGSGTDFTLTISSLEPEDFAVYYCQQSNSWPHTFGGGTKVEIK", "fold enhanced binding over LM609 grafted antibody": "> 3"},
      {"binder": "LM609 grafted antibody variant L30 (Fab, V domains shown, Fab) VH: QVQLVESGGGVVQPGRSLRLSCAASGFTFLSYDMSWVRQAPGKGLEWVAKVSSGGGSTYYLDTVQGRFTISRDNSKNTLYLQMNSLRAEDTAVYYCARHNYGSFAYWGQGTTVTVSS VL: EIVLTQSPATLSLSPGERATLSCQASQSISNHLHWYQQRPGQAPRLLIRYRSQSISGIPARFSGSGSGTDFTLTISSLEPEDFAVYYCQQSGSWPHTFGGGTKVEIK", "fold enhanced binding over LM609 grafted antibody": "> 3"}
    ]}
  ]
}
